The text below walks through data of patent US20220162306A1.

Where “and” joins values, the source holds several entries; their conditions need not be identical. Identical values can stand only once.

The target of assay [1] is receptors on circulating human B cells (CD32B and CD79B, the two targets of PRV-3279). The experiment in a line: receptor occupancy on circulating B cells of dosed healthy subjects (FIG. 3B).
Assay [2] has the same target.
Assay [3] addresses CD32B (Fc gamma receptor IIb) (human) (UniProt P31994). The experiment in a line: cell-based or functional assay.

Sequence of CD32B (Fc gamma receptor IIb) (human) (P31994 43-310): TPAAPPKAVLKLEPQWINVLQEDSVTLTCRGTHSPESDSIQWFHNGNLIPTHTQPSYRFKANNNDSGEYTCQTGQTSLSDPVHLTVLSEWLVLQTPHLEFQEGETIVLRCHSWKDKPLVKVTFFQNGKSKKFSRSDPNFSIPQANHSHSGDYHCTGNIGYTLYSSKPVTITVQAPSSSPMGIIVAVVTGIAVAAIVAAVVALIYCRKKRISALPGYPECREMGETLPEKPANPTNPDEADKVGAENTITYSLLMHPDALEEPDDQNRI

As for “PRV-3279, a humanized CD32B×CD79B DART® protein (bispecific antibody)”, in assay [1], the percent of receptors occupied is 70% and 75%. Besides, in assay [2], the percent of available CD19+ B cells bound was over 85% and the receptor occupancy was over 50%. In assay [3], this substance came in with an inhibition of anti-human IgM stimulated B-cell proliferation (3H-thymidine incorporation), 100 nM PRV-3279, B cells of SLE patients with active or inactive disease of 60%; an inhibition of anti-human IgM stimulated B-cell proliferation (3H-thymidine incorporation), 100 nM PRV-3279, B cells of normal healthy volunteers and SLE patients of 60%.
